Common to all, as to type: cell-based
In experiment [1] the target is T1, interaction between Cabin 1-14 and full length calcineurin β2 (H160N) (Homo sapiens, UniProt P16298, H160N).
T1 construct: expressed in transfected cells; host or cells: Jurkat T cells
Kind of experiment: mammalian two-hybrid assay in Jurkat T cells (luciferase reporter). The note with it: Jurkat T cells stimulated with PMA and ionomycin. The source says:
(§1) A mammalian two-hybrid system was established in Jurkat T cells by fusing calcineurin with the Gal4 DNA binding domain and Cabin 1-14 with the VP16 activation domain (Hsu et al., Proc. Natl. Acid Sci. USA 91:3181-3185 (1994)). The fusion plasmids for mammalian two-hybrid assays were constructed as follows: The cDNAs of calcineurin Aβ2 wild type and H160N mutant were fused to the GAL4 DB in the pM vector (obtained from Clontech, Palo Alto, Calif.) (pMCNβ2 and PMCNβ2 (H160N), and the cDNA of Cabin 1-14 was fused to the VP16 AD in the pVP16 vector (pVPCabin 1-14). Jurkat T cells were transfected with 5 μg of pMCβ2 or pMCβ2 (H160N), 5 μg of pVPCabin 1-14, 1 μg of pCMV-βGal, and 2 μg of pg5Luc, a luciferase reporter plasmid containing GAL4 promoter, by electroporation (960 μF, 250V). After 48 hr, cells were stimulated with 40 nM PMA and 2.5 μM ionomycin, either alone or in combination, for 6 hr before luciferase activity was measured for each sample. The luciferase reporter gene assay reagents were obtained from Promega, Madison, Wis., and the assay was performed per manufacturer's instructions. […] Where appropriate, the transfection efficiency was measured by co-transfecting 2 μg of CMV-driven β-galactosidase expression vector and measuring enzymatic β-galactosidase activity (Ausubel et al., Current Protocols in Molecular Biology (John Wiley & Sons, Inc., New York, 1994)).
On the technique in general: A reporter such as luciferase makes a cellular process visible.

Experiment [2] has as its target T2, interaction between Cabin 1-14 and wild type calcineurin β2 (Homo sapiens, UniProt P16298).
T2 construct: expressed in transfected cells; host or cells: Jurkat T cells
The experiment is described as above. The settings on record: Jurkat T cells stimulated with PMA and ionomycin.
From the text: as §1

Experiment [3] has as its target T3, wild type full-length calcineurin (Homo sapiens, UniProt P16298).
T3 construct: expressed in transfected cells; host or cells: Jurkat T cells
Kind of experiment: co-immunoprecipitation of Cabin 1-14 and calcineurin from Jurkat T cells. The note with it: PMA, ionomycin or both for 3 hrs. The source says:
In the mammalian two-hybrid system, the interaction between full-length calcineurin and Cabin 1-14 required ionomycin, which is consistent with the activation of full-length calcineurin by calcium and calmodulin. Unexpectedly, this interaction also required PMA (see FIG. 3C). Since PMA is known to activate PKC, the effect of a PKC-specific inhibitor, bisindolylmaleimide (Toullec et a., J. Biol. Chem. 266:15771-15781 (1991)), was examined on the PMA/ionomycin-stimulated interaction between Cabin 1-14 and calcineurin. […] In addition to the mammalian two-hybrid system, the interaction of Cabin 1-14 and the wild type full-length calcineurin was also confirmed by co-immunoprecipitation (See FIG. 3E). […] Jurkat T cells transfected with pSG-HACNAβ2 and pSG-Cabin 1-14 were stimulated with PMA, ionomycin or both for 3 hrs. The cells were lysed in a lysis buffer (20 mM TrisHCl, pH 7.4, 0.1M NaCl, 1% Triton X-100, 0.5% NP-40 and 0.5 mM PMSF). Cell lysates thus prepared were incubated with anti-Cabin 1 polyclonal antibodies and protein A/G agarose (Santa Cruz) for 2 hr., washed with lysis buffer and boiled in SDS sample buffer. The samples were subjected to 10% SDS-PAGE, transferred to nitrocellulose which was probed with anti-HA monoclonal antibodies and developed with ECL reagents (Amersham, Arlington Heights, Ill.). […]

Experiment [4] relates to ARRE (Oct1/AP-1) binding sites derived from the IL-2 promoter. Put plainly: ARRE (Oct1/AP-1) luciferase reporter gene assay in Jurkat T cells. The settings on record: coexpression.
Experiment [5] deals with NF-AT binding sites derived from the IL-2 promoter. Kind of experiment: NF-AT luciferase reporter gene assay in Jurkat T cells. The settings on record: coexpression.
In another experiment the test system is IL-2 promoter. Put plainly: IL-2 promoter luciferase reporter gene assay in Jurkat T cells. The settings on record: PMA and ionomycin.
Experiment [6] concerns AP-1 binding sites derived from the IL-2 promoter. Put plainly: AP-1 luciferase reporter gene assay in Jurkat T cells. The settings on record: coexpression.
In experiment [7] the test system is NF-κB binding sites derived from the IL-2 promoter. Put plainly: NF-κB luciferase reporter gene assay in Jurkat T cells. The note with it: coexpression.
The subject of experiment [8] is calcineurin phosphatase activity. Kind of experiment: calcineurin-mediated dephosphorylation of ΔNF-AT1 in Jurkat T cells (Western blot). The source says:
To determine if the inhibition of IL-2 promoter by Cabin1-14 is mediated through the inhibition of calcineurin phosphatase activity in vivo, the effect of Cabin 1-14 on the calcineurin-mediated dephosphorylation of the N-terminal fragment of NF-ATI (ΔNF-AT1), upon treatment with ionomycin and PMA, was examined. Jurkat T cells were transfected with expression vectors for Cabin 1-14 (pSGCabin 1-14) and for HA-epitope tagged, truncated NF-AT1 (1-460) fused to green fluorescent protein (pSG-ΔNF-AT1 (1-460) by electroporation as described above. After 48 hrs, cells were treated with PMA and ionomycin, either alone or in combination, for another 1 hr. Whole-cell lysates were prepared and subjected to 8% SDS-polyacrylamide gel electrophoresis, transferred to nitrocellulose membrane (Schleicher & Schuell, New Hampshire), probed with anti-HA epitope monoclonal antibody, and developed with ECL reagents (Amersham, Arlington Heights, Ill.).

T3 sequence (P63098 2-170 partner limits assumed, other chains not shown): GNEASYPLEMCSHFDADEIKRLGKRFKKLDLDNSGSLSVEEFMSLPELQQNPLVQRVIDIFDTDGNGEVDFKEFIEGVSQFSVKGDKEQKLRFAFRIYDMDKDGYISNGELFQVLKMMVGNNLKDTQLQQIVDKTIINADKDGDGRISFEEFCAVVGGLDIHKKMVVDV

B1: Cabin 1-14: C-terminal fragment of Cabin 1 polypeptide, SEQ ID NO:5 (protein, listed as Homo sapiens)
chain: KFPPEITVTPPTPTLLSPKGSISEETKQKLKSAILSAQSAANVRKESLCQPALEVLETSSQESSLESETDEDDDYMDI
Take B1: the “interaction with full length calcineurin β2 (H160N) mutant” value in experiment [1] was “strong interaction”. Further, the “interaction with wild type calcineurin relative to the mutant enzyme” value in [2] was “several fold weaker”. The “coprecipitation with wild type calcineurin” value was “coprecipitated only upon stimulation of Jurkat T cells with both PMA and ionomycin” in experiment [3]; “dependent on both PKC and calcium stimulation” in experiment [3] (listed as Cabin1-14). Moreover, the “effect on ARRE (Oct1/AP-1) reporter gene” value in experiment [4] was “inhibited”; in [4] (listed as Cabin1-14) it was “inhibits”. Besides, the “effect on NF-AT reporter gene” value in experiment [5] is “inhibited”; in experiment [5] (listed as Cabin1-14) it was “inhibits”. Also, the “effect on IL-2 reporter gene activation” value is on record as “potently inhibited” with IL-2 promoter and “inhibit” in the experiment with IL-2 promoter (listed as Cabin1-14). Further, the “effect on AP-1 reporter gene” value is on record as “inhibited” in [6] and “inhibits” in experiment [6] (listed as Cabin1-14). Moreover, the “effect on NF-κB reporter gene” value in [7] is “inhibited”; in experiment [7] (listed as Cabin1-14), “inhibits”. The “inhibition of ΔNF-AT1 dephosphorylation in the presence of PMA versus in its absence” value in experiment [8] (ionomycin with PMA versus without) was “larger extent”. Further, the “effect on dephosphorylation of ΔNF-AT1” value in [8] (overexpression, ionomycin in the presence or absence of PMA) is listed as “inhibited”.

For the origin of these results see patent US6686450B1, “Immunosuppressive agents that inhibit calcineurin function and uses of these agents” (Massachusetts Institute of Technology, priority 1998, dated 2004).
